In PMC11538491:
Where two headings read alike, the source gives them in different places.

B1: serpinA3 from human plasma, bound to the B19V capsid (natural protein)
chain: HPNSPLDEENLTQENQDRGTHVDLGLASANVDFAFSLYKQLVLKAPDKNVIFSPLSISTALAFLSLGAHNTTLTEILKGLKFNLTETSEAEIHQSFQHLLRTLNQSSDELQLSMGNAMFVKEQLSLLDRFTEDAKRLYGSEAFATDFQDSAAAKKLINDYVKNGTRGKITDLIKDLDSQTMMVLVNYIFFKAKWEMPFDPQDTHQSRFYLSKKKWVMVPMMSLHHLTIPYFRDEELSCTVVELKYTGNASALFILPDQDKMEEVEAMLLPETLKRWRDSLEFREIGELYLPKFSISRDYNLNDILLQLGIEEAFTSKADLSGITGARNLAVSQVVHKAVLDVFEEGTEASAATAVKITLLSALVETRTIVRFNRPFLMIIVPTDTQNIFFMSKVTNPKQA
modifications: five extra densities at the predicted N-glycosylation sites (positions not given)

Assays:
[1] = target: parvovirus B19 (B19V) virion purified from infected patient plasma, genotype 1 (human parvovirus B19); assay: cryo-EM structure
[2] = target: parvovirus B19 (B19V) virion purified from infected patient plasma, genotype 1 (human parvovirus B19); assay: cryo-EM structure; remark: listed apart in the source

Molecule | occupancy of the binding sites [1] | stoichiometry N (molecules per capsid) [1] | occupancy of the binding sites [2] | stoichiometry N (molecules per capsid) [2] | stoichiometry N (sites occupied per capsid (of 30)) [2]
inter-alpha-trypsin inhibitor heavy chain 4 (ITIH4) from human plasma, bound to the B19V capsid (natural protein) | 19.4% | 12 |  |  | 
B1 |  |  | 38.3% | 23 | 22
